Consider one substance from patent US20100068217A1.

Assay [1] addresses MPER WT peptide. Description: ELISA, antigen on the plate, 2F5 IgG titrated 2.6e-7 to 1e-1 ug/ul. In general terms: In an ELISA, binding on a coated surface is turned into a signal by an enzyme label.
Assay [2] addresses gp41e-1KU2 (Thermus aquaticus (origin of the scaffold protein, Table 1)). Described as above.
The target in assay [3] is MPER WT peptide. Description: kinetics with 2F5 as analyte (Biacore per paragraph 255). In general terms: SPR reads the build-up and loss of mass on a sensor chip optically.
For assay [4], the target named is MPER Cyclized peptide (HIV-1 gp41 MPER-derived, synthetic). The description is as above.
The target in assay [5] is gp41e-1LGY (Rhizopus niveus (origin of the scaffold protein, Table 1)). Described as above.
Assay [6] addresses gp41e-1KU2 (Thermus aquaticus (origin of the scaffold protein, Table 1)). The description is as above.
In assay [7] the target is gp41e-2MAT (E. coli (origin of the scaffold protein, Table 1)). Described as above.

For 2F5 antibody, the EC50 (read off the curve) (in the assay with MPER WT peptide [1]; in assay [2]) was 0.2 µg/mL each time. Also, the Kd (commonly the constant that tells how readily two partners part at equilibrium) came out at 6.45 nM with MPER WT peptide [3]; 5.09 nM in assay [4]; 10.7 nM in assay [5]; 2.63 nM in assay [6]; 9.35 nM in assay [7]. In addition, the koff (commonly a measure of how fast the partners let go of each other) worked out at 0.00356 s⁻¹ with MPER WT peptide [3]; 0.00269 s⁻¹ in assay [4]; 0.00396 s⁻¹ in assay [5]; 0.00287 s⁻¹ in assay [6]; 0.000679 s⁻¹ in assay [7]. Besides, the kon (in general, a measure of how fast the partners come together) with MPER WT peptide [3] stood at 552000 M⁻¹ s⁻¹; in assay [4], 528000 M⁻¹ s⁻¹; in assay [5] it was 369000 M⁻¹ s⁻¹; in assay [6] it was 1.09e+06 M⁻¹ s⁻¹; in assay [7], 72600 M⁻¹ s⁻¹.
